Data on 30 sequences can be found in the nanobody polyreactivity screen of Harvey et al. (2022).

This data set in a line: yeast display, Sf9 membrane polyspecificity reagent, FACS + sequencing; frameworks hold sequencing errors. Summed up: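 In a synthetic yeast display library (Saccharomyces cerevisiae BJ5465), nanobody expression was induced with galactose for 36–48 hours. FACS gates were set low and high (top ~1%) using anti-HA fluorescence for expression and streptavidin fluorescence for binding of the Sf9 membrane reagent. Each polyreactivity label is drawn from the gate of origin.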
“QVQLVESGGGLVQAGGSLRLSCAPCGSIFSSYAMGWYRQAPGQDWELVAAISSGGCITYYADSVKGRFTISRDNAKNTVYLQMHSLKPEDTAVYYCNARVARSNYGWYYDWGQGTQVTVSS”: the “polyreactivity (PSR sort gate)” value is listed as “high polyreactivity”. “QVQLVESGGGLVQAGGSLRLSCAPSAGTFSPYDMGWSRQSPGKQRELVASITGSGGSTYFADSVKGRFTISRGNAKNTVYLQMNSLKPEDTAVYYCDAQGYWTYWPYLLRLYDYWGQGTQVTVSS”: the “polyreactivity (PSR sort gate)” value is listed as “low polyreactivity”. On to “QVQLVESGGGLVQAGGSLRLSCAPSGFIFGSHAMGWYRQARGKERELVAAISARGGRTYYADSVKERFTISRDNAKNTVYLQMNSLKPADSAVYYCATLDTTGVNYWGQGTQVTVSS”, for which the “polyreactivity (PSR sort gate)” value is listed as “high polyreactivity”. The result for “QVQLVESGGGLVQAGGSLRLSCAPSGFIFGSYAMGWYTQAPGKERELVAAISRSGGRTYYADSVKGRFTISRDNAKNTVYLQMNSLKPEDSAVYYCAAVHLLVYPTYDSWGQGTQVTVSS” reads “high polyreactivity”; that for “QVQLVESGGGLVQAGGSLRLSCAPSGFIFHKYVMGWYRQAPGKERELVAAISRSGASTYYADSVKGRFTISRDNAKNTVYLQMNSLKPEDTAVYYCNAQPGKWEYDYWGQGTQVTVSS”, “high polyreactivity”. With “QVQLVESGGGLVQAGGSLRLSCAPSGFIFYFYTMGRYRQAPGKEMELVAGITWLDGSTYYADSVKGRLTISRDNAKNTVYLQRNSLKPEDTAVYYCAVDYDLVVSPYYYWGQGTQVTVSS” the entry was “low polyreactivity”.

For the sequence “QVQLVESGGGLVQAGGSLRLSCAPSGFTFRFYVMGWYRQAPGKERELVAAISSSGGSTYYADSVKGRFTISRDNAKYTVYLQMNSMKPEDTAVYYCAADVPGARVSYWTYSGWHYDYWGQGTQVTVSS”, the “polyreactivity (PSR sort gate)” value is “high polyreactivity”. The result for “QVQLVESGGGLVQAGGSLRLSCAPSGGTFVSYVMGWYRQAPGKERELVAAISVSGGRTYYADSVKGRFTISRDNAKNTVYLQMNSLKPEDTAVYYCAADSVVVGSPGNDYWGQGTQVTVSS” reads “high polyreactivity”; that for “QVQLVESGGGLVQAGGSLRLSCAPSGIIFRIYAMGWYRQAPGKEREFVAAISGSGDSTYYADSVKGRFTISRDNAKNTVYLQMNSLKPEDTAVYYCAADWTLVYYHEDYWGQGSQVTVSS”, “high polyreactivity”. With “QVQLVESGGGLVQAGGSLRLSCAPSGIIFYAYAMGWYRQAPGKEREFVAAINNSGGRTYYADSVKGRFTISRDNAKNTVYLQMNSLKPEDTAVYYCAVYSYYRRTYRREMDYWGQGTQVTVSS” the entry was “high polyreactivity”; with “QVQLVESGGGLVQAGGSLRLSCAPSGISIIGYAMGWYRQAPGKVRELVASIDSGGITNYADSVKGRFTISRDNAKNTVYLQMNSLKPEDTAVYDCAARVAYFGGPYYSWGEGTQVTVSS”, “high polyreactivity”; with “QVQLVESGGGLVQAGGSLRLSCAPSGLIFASYAMGWYRQAPGKERELVAAITSSGGSTYYADSVKGRFTISRDNAKNTVYLQMNSLKPEDTAVYYCAADIYTYNLFYHWRWLDYNYWGQGTQVTVSS”, “high polyreactivity”. With “QVQLVESGGGLVQAGGSLRLSCAPSGNTFGRNAMGWYRQAPGKERELVAAISFSGSRTYYADSVKGRFTISRDNAKNTVYLQMSSLKPEDTAVYYCNKRGADWTGFFYYEYDYWGQGTQVTVSS” the entry was “low polyreactivity”.

Consider “QVQLVESGGGLVQAGGSLRLSCAPSGRIFFYYVMGWYRQAPGKERELVAAITRSGGSTYYADSVKGRFTISRDNAKNTVYLQMNSLKPEDTAVYYCAVGDGFEFDWGQGTQVTVSS”, for which the “polyreactivity (PSR sort gate)” value was “low polyreactivity”.

With “QVQLVESGGGLVQAGGSLRLSCAPSGRIFHYNAMGWYRQAPGKERELVAAIDYGGSSTYYADSVKGRFTISRDNAKNTVYLEMNSLKPEDTAVYYCWGQATQVTVSS”, the “polyreactivity (PSR sort gate)” value is listed as “low polyreactivity”. The result for “QVQLVESGGGLVQAGGSLRLSCAPSGRIFQANAMGWYRQAPGKERELVASISSGVSTNYADYVKGRFTISRDNAKNTVYLQMNSQKQEDTGVYYCADSDPSSAYWVGYYWYDNWGQGTQVTVSS” reads “low polyreactivity”.

In the case of “QVQLVESGGGLVQAGGSLRLSCAPSGRIFQYYTMGWSRQAPGKDRELVATISRRGGRTYYADSVKGRFTISRDNAKNTVYLQKNSLKPEDTAVYYCAARTYSYEYDYWGQGTQVTVSS”, the “polyreactivity (PSR sort gate)” value is “high polyreactivity”. The result for “QVQLVESGGGLVQAGGSLRLSCAPSGRIFRTNTMGWYRQAPGKERELVAAITRGGSTYYADSVKGRFTISRDNAKNTDYLQMKSLKPEDTAVYYCAASRYYNTVHNGGDYWGQGTQVTVSS” reads “high polyreactivity”; that for “QVQLVESGGGLVQAGGSLRLSCAPSGRIFTRYAMGWYRQAPGKERELVAASSSSGGSTYYADSVKGRFTISRDNAKNTVYLQMTSLKPEDTAVYYCNRGGWYAYYWGQGTQVTVSS”, “high polyreactivity”; that for “QVQLVESGGGLVQAGGSLRLSCAPSGRIFYSYAMGWYRQAPGKVRELVAAIRSRGGSTRYADSVKGRFTISRDNAKNNVYLQMNSLKPEDTAVYYCAATGYQSRGSSDYWGQGTQVSVSS”, “high polyreactivity”. With “QVQLVESGGGLVQAGGSLRLSCAPSGRIFYYYAKGWYRQAPGKERELVAAINSGGSTNYADSVKGRFTISRDNAKNTVYLQMNSLKPEDTAVYYCAADAKLVSEFDYWGQGTQVTVSS” the entry was “low polyreactivity”; with “QVQLVESGGGLVQAGGSLRLSCAPSGRIVYYYAMGWYRHAPGKERELVASITFSGGRTFYADSVKGRFTITRDYAKNTVYLQMNSVTPEDTAVYYGAAVRCGRRSGGLVAEYDYWGQGTQVSVSS”, “high polyreactivity”; with “QVQLVESGGGLVQAGGSLRLSCAPSGRMFVFYTMGWYRPAPGKESELVAYINSGGSTYYADSVKGRFTISRDNAKNSVYLQMNSLKPEDTAVYYCAAGPCRGPDSRWRYKYDYWGQGTQVTVSS”, “high polyreactivity”. With “QVQLVESGGGLVQAGGSLRLSCAPSGRTFIFYAMGWYRQAPGKERELVAAISSSGSGTYYADSLKGRFTISRDNAKNTVYLQMNSLKPEDTAVYSCAAAVVNSRRRPKYGYWGQGTQVTVSS” the entry was “low polyreactivity”; with “QVQLVESGGGLVQAGGSLRLSCAPSGRTFNYNAMGWYRQAPGKERELVAAITSSGGGTSYADSVKGRFTISRDNAKNTVYFQMNSLKPYYTAVYYCAAEVDRGKYCSTYRGGDYCGQGTQVTVSS”, “high polyreactivity”; with “QVQLVESGGGLVQAGGSLRLSCAPSGRTFRYYAMGWYRQAPGKERELVATISKSGGSTYYADSVKGRFTISRDNAKNTVYLQMNSLKPEDTAVYYCAAPIYNGYASWQVYYWGQGTQVTVSS”, “high polyreactivity”.

As for “QVQLVESGGGLVQAGGSLRLSCAPSGRTFTAYAMGWYRQAPGKERELVAAITSGGSTYYADSVKGRFTISRDNAKNTVYLKRKSLKPEDTAVYYCATDLYSFYWPEYEYWGQGTQVTLSS”, the “polyreactivity (PSR sort gate)” value is given as “low polyreactivity”. The result for “QVQLVESGGGLVQAGGSLRLSCAPSGRTFWSYAMGWYRQAPGKERELVAAISLDDGTTYYADSVKGRFTISRDNAKNTVYLQMNSLKPEDTAVYDCAAEREQGDDGYGPDYGYWGQGTQVTVSS” reads “high polyreactivity”. For the sequence “QVQLVESGGGLVQAGGSLRLSCAPSGSIFEINAMGWYRQAPGKERELVAAITGSGGSTHYADSVKGRFTISRDNAKKTVYLEMNSLKPEDTAVYYCAAVQRYQYGYWGQGTQVTVSS”, the “polyreactivity (PSR sort gate)” value was “low polyreactivity”.

Take “QVQLVESGGGLVQAGGSLRLSCAPSGSIFVVNAMGWFRQAPGKEREFVAAITFGGGTTYYADSVKGRITISRDNAKNTVYLQMYSLKPEDTEVYYCNTRTRGYSSYVGGYNYWGQGTQVTVSS”: the “polyreactivity (PSR sort gate)” value is given as “low polyreactivity”.
